The numbers were not newly measured in PMC9179313, which cites them from elsewhere.

This data set has as its target ICAM1 (Homo sapiens) (UniProt P05362).

“And” between values parts separate entries of the source, which are not always exact repeats. Equal values may be shown once.

LFA1 (integrin alpha-L beta-2), sequence (P20701 26-1090): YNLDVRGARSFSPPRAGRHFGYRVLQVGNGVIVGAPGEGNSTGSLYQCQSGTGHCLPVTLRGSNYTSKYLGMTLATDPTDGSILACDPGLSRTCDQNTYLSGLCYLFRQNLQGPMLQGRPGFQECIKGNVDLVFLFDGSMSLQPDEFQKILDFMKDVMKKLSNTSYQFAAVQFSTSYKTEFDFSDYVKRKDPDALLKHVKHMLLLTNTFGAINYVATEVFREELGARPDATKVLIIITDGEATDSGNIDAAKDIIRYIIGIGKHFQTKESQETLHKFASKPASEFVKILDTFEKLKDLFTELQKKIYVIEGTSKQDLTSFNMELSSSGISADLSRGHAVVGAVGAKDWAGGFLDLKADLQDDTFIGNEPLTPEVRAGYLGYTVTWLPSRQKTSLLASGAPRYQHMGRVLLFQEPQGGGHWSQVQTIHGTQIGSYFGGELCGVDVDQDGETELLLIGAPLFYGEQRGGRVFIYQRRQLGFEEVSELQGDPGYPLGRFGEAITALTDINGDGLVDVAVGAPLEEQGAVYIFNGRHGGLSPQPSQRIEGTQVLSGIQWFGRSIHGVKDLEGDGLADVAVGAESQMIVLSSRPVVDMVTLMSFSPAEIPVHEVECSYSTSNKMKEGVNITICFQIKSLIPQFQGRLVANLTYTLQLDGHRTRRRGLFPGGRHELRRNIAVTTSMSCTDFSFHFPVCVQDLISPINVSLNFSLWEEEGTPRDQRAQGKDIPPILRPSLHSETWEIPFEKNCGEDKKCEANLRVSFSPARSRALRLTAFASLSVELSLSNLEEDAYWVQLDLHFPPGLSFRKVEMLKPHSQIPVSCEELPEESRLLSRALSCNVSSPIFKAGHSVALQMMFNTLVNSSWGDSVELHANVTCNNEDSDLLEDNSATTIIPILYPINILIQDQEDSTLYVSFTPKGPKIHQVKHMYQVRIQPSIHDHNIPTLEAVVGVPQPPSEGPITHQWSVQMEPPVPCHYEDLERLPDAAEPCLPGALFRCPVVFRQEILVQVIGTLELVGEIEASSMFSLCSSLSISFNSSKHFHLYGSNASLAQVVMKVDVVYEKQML
LFA1 (integrin alpha-L beta-2), sequence (P05107 23-700, further chain): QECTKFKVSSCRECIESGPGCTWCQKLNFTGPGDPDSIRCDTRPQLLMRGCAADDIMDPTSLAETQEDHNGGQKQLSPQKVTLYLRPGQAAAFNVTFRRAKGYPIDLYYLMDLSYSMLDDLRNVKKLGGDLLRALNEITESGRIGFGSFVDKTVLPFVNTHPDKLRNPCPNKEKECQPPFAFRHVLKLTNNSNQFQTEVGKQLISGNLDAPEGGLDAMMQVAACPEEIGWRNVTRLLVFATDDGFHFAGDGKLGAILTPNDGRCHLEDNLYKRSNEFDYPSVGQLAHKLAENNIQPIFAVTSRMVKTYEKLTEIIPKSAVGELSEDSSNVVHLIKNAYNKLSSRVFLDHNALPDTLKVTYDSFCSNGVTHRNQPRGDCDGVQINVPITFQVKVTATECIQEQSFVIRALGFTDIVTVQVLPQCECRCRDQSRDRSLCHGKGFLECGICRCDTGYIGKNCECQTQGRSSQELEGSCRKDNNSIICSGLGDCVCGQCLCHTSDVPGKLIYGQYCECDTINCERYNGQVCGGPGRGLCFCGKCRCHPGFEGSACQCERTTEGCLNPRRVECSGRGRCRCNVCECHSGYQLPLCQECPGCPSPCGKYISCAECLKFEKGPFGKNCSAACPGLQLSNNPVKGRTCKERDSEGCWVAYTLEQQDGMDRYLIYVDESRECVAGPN
ICAM1 (Homo sapiens), sequence (P05362 28-480): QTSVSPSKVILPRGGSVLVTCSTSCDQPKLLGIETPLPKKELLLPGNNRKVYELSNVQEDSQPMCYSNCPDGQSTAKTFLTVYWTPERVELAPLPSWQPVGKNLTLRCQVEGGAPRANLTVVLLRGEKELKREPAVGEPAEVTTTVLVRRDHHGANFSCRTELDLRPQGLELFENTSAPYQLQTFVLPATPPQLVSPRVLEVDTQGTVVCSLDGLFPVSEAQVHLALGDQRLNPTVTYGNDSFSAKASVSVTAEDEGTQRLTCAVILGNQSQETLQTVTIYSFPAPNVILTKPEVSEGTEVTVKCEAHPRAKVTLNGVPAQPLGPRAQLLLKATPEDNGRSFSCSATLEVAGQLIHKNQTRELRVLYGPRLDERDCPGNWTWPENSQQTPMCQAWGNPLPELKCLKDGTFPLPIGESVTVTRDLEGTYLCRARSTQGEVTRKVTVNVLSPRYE

As to “LFA1 (integrin alpha-L beta-2) (from UniProt P20701)”, the dissociation constant (Kd) was 26 µM and 36 µM.
